From the supplement of paper PMC9233669
This sample holds only a part of the variants without activity.

Experiments:
biotinyl-Trp-oxazolone = experiment: self-aminoacylation, catalytic enhancement (BWO) (fold over background); higher = more active; k-Seq, kA / k0A0; sequences stand for … in GGGAAUGGAUCCACAUCUACGAAUUC…UUCACUGCAGACUUGACGAAGCUG
Method in brief: (§1)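 Mutagenized RNA pools with a 21-nt variable region (0.43 μM) reacted with each biotinyl-aminoacyl-oxazolone at 2–1250 μM. Reactions ran in 50 μL HEPES/NaCl/KCl/MgCl2/CaCl2 buffer with 5% acetonitrile, pH 6.9–7.0, for 90 minutes at room temperature. Streptavidin-captured RNA was quantified by triplicate qPCR and Illumina sequencing, and per-sequence fraction reacted was fit to a pseudo-first-order model with 1000 bootstraps. Catalytic enhancement is median kA divided by the uncatalyzed rate, the low-activity peak of a bimodal Gaussian fit.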

biotinyl-Ile-oxazolone = experiment: self-aminoacylation, catalytic enhancement (BIO) (fold over background); higher = more active; k-Seq, kA / k0A0; sequences stand for … in GGGAAUGGAUCCACAUCUACGAAUUC…UUCACUGCAGACUUGACGAAGCUG
Method in brief: as §1

biotinyl-Leu-oxazolone = experiment: self-aminoacylation, catalytic enhancement (BLO) (fold over background); higher = more active; k-Seq, kA / k0A0; sequences stand for … in GGGAAUGGAUCCACAUCUACGAAUUC…UUCACUGCAGACUUGACGAAGCUG
Method in brief: as §1

biotinyl-Phe-oxazolone = experiment: self-aminoacylation, catalytic enhancement (BFO) (fold over background); higher = more active; k-Seq, kA / k0A0; sequences stand for … in GGGAAUGGAUCCACAUCUACGAAUUC…UUCACUGCAGACUUGACGAAGCUG
Method in brief: as §1

biotinyl-Val-oxazolone = experiment: self-aminoacylation, catalytic enhancement (BVO) (fold over background); higher = more active; k-Seq, kA / k0A0; sequences stand for … in GGGAAUGGAUCCACAUCUACGAAUUC…UUCACUGCAGACUUGACGAAGCUG
Method in brief: as §1

biotinyl-Met-oxazolone = experiment: self-aminoacylation, catalytic enhancement (BMO) (fold over background); higher = more active; k-Seq, kA / k0A0; sequences stand for … in GGGAAUGGAUCCACAUCUACGAAUUC…UUCACUGCAGACUUGACGAAGCUG
Method in brief: as §1

Sequence | self-aminoacylation (biotinyl-Trp-oxazolone) | self-aminoacylation (biotinyl-Ile-oxazolone) | self-aminoacylation (biotinyl-Leu-oxazolone) | self-aminoacylation (biotinyl-Phe-oxazolone) | self-aminoacylation (biotinyl-Val-oxazolone) | self-aminoacylation (biotinyl-Met-oxazolone)
AUUGACCUAUGUCAUCGGGUG [Fam2.2 aminoacylation ribozyme variant] | 5.17 | 3.81 | 7.74 | 28.4 | 3.64 | 5.68
AGGAUUGCUAAUAGUCGCAAG [Fam3.1 aminoacylation ribozyme variant] | 2.52 | 1.62 | 1.66 | 2.92 | 1.88 | 1.52
AUUACUCUGGUCAACGAGUGA [Fam2.1 aminoacylation ribozyme variant] | 7.22 | 3.12 | 5.72 | 26.9 | 2.76 | 5
ACACACUUCAAGCAAUCGGCC [Fam1B.1 aminoacylation ribozyme variant] | 6.35 | 2.7 | 2.54 | 4 | 2.57 | 2.21
AAGUUUGCUAAUAGUCGCAGU [Fam3.1 aminoacylation ribozyme variant] | 3.14 | 1.33 | 1.66 | 8.27 | 1.34 | 1.91
AUUCACCUAGGUCAACAGGUG [Fam2.2 aminoacylation ribozyme variant] | 1.87 | 1.64 | 2.8 | 5.63 | 1.56 | 2.2
CCACCGUUCAAGCAAUCGGUC [Fam1B.1 aminoacylation ribozyme variant] | 1.11 | 1 | 0.983 | 1.27 | 1.41 | 0.827
AUUACUCUGGUCCUCGAGUGA [Fam2.1 aminoacylation ribozyme variant] | 4.62 | 2.31 | 4.34 | 18.2 | 2.01 | 3.62
CCACUUCAAACAAUCGGACUG [Fam1A.1 aminoacylation ribozyme variant] | 14.9 | 0.9 | 1.26 | 22.6 | 1.1 | 1.03
CCACACUUUAAGCAAUCGCUC [Fam1B.1 aminoacylation ribozyme variant] | 1.2 | 0.99 | 0.897 | 0.598 | 1.08 | 1.1
CCACAGUUCAAGCAAUCGGUG [Fam1B.1 aminoacylation ribozyme variant] | 3.62 | 3.29 | 5.44 | 25.9 | 3.14 | 4.04
AUUACCCUGGCCAUCAAGUGA [Fam2.1 aminoacylation ribozyme variant] | 1.67 | 0.983 | 0.968 | 1.1 | 1.01 | 1.07
CCACACUUCAAGCAUACGGUC [Fam1B.1 aminoacylation ribozyme variant] | 0.453 | 0.564 | 0.501 | 0.63 | 0.836 | 0.538
AUUAACCUAGGUUAUCGGGUG [Fam2.2 aminoacylation ribozyme variant] | 2.84 | 2.5 | 3.46 | 17.9 | 2.19 | 3.1
AUUCCCCUGGUCAUCGAGUGC [Fam2.1 aminoacylation ribozyme variant] | 2.07 | 1.36 | 1.63 | 1.33 | 1.64 | 1.35
CUUCUUCAAACAAUAGGUCUG [Fam1A.1 aminoacylation ribozyme variant] | 0.568 | 0.883 | 0.825 | 0.983 | 0.832 | 0.817
ACUACCCUGUUCAUCGAGUGA [Fam2.1 aminoacylation ribozyme variant] | 5.04 | 2.28 | 3.27 | 6.68 | 2.33 | 3.17
AUUCACCUAUGUCAUCGGGUA [Fam2.2 aminoacylation ribozyme variant] | 1.89 | 1.55 | 2.41 | 1.14 | 1.79 | 1.96
AUUACCCUGGCCAUCGAGUGA [Fam2.1 aminoacylation ribozyme variant] | 3.94 | 2.05 | 3.27 | 11.7 | 2.24 | 3.27
CCACACUUGAAGCGAUCGGUC [Fam1B.1 aminoacylation ribozyme variant] | 0.952 | 1.41 | 0.996 | 1.67 | 1.39 | 1.36
CUACUUCAAACAUUCAGUCUG [Fam1A.1 aminoacylation ribozyme variant] | 0.602 | 1.04 | 0.741 | 0.971 | 0.812 | 0.734

Sequence | self-aminoacylation (biotinyl-Trp-oxazolone) | self-aminoacylation (biotinyl-Ile-oxazolone) | self-aminoacylation (biotinyl-Leu-oxazolone) | self-aminoacylation (biotinyl-Phe-oxazolone) | self-aminoacylation (biotinyl-Val-oxazolone) | self-aminoacylation (biotinyl-Met-oxazolone)
AUUACCCUGGUCAUUGAGUGC [Fam2.1 aminoacylation ribozyme variant] | 0.798 | 0.962 | 1.15 | 1.08 | 0.993 | 0.995
CUAUUUCAAAUAAUCGGUCUG [Fam1A.1 aminoacylation ribozyme variant] | 2.2 | 0.912 | 0.814 | 3.5 | 0.816 | 0.849
AAGAUUGCUAAUAGUCGCAUG [Fam3.1 aminoacylation ribozyme variant] | 1.46 | 1.68 | 1.91 | 1.36 | 1.39 | 1.45
AUUCGCCUAGGGCAUCGGGUG [Fam2.2 aminoacylation ribozyme variant] | 4.92 | 3.24 | 5.64 | 26.1 | 3.45 | 5.3
AUUCACCUAGGCAAUCGGGUG [Fam2.2 aminoacylation ribozyme variant] | 3.92 | 2.52 | 4.75 | 35.4 | 2.98 | 3.95
CCACACUUGAAGGAAUCGGUC [Fam1B.1 aminoacylation ribozyme variant] | 1.71 | 1.28 | 1.55 | 1.23 | 1.39 | 1.39
AUUACCCUGGACAUCGAGCGA [Fam2.1 aminoacylation ribozyme variant] | 1.34 | 1.24 | 1.26 | 1.24 | 1.07 | 1.45
CUACUUCUAACAAUCGGUGUG [Fam1A.1 aminoacylation ribozyme variant] | 0.569 | 0.844 | 0.907 | 0.728 | 0.687 | 0.91
AUUCUCCUACGUCAUCGGGUG [Fam2.2 aminoacylation ribozyme variant] | 6.69 | 4.89 | 9.67 | 57.3 | 5.36 | 6.97
AUUCGCCUAAGUCAUCGGGUG [Fam2.2 aminoacylation ribozyme variant] | 11.7 | 7.83 | 15.6 | 117 | 7.95 | 12.9
CCACACUACAAGGAAUCGGUC [Fam1B.1 aminoacylation ribozyme variant] | 0.681 | 1.01 | 0.947 | 0.823 | 1.03 | 0.84
AUUCCCCUGGUCAUCGAGUGU [Fam2.1 aminoacylation ribozyme variant] | 3.8 | 2.39 | 3.28 | 15.2 | 2.61 | 3.09
AUUGCCCUGGUCAUCGACUGA [Fam2.1 aminoacylation ribozyme variant] | 1.35 | 0.899 | 0.735 | 1.08 | 0.951 | 0.941
CCACACUACAAGCAAUCGGUG [Fam1B.1 aminoacylation ribozyme variant] | 5.03 | 3.62 | 6.9 | 31.8 | 2.85 | 4.92
CCGUACUUCAAGCAAUCGGUC [Fam1B.1 aminoacylation ribozyme variant] | 18.4 | 1.16 | 1.42 | 34.5 | 1.3 | 1.06
AAGUCUGCUAAUAGUCCCAAG [Fam3.1 aminoacylation ribozyme variant] | 2.43 | 0.928 | 1.15 | 7.42 | 0.893 | 1.38
AAGUUUGCUGAUAGUCGCCAG [Fam3.1 aminoacylation ribozyme variant] | 1.44 | 1.38 | 2.22 | 4.26 | 1.53 | 1.41
CCACACUUCCAGUAAUCGGUC [Fam1B.1 aminoacylation ribozyme variant] | 0.792 | 1.02 | 0.829 | 0.618 | 1.1 | 0.791
CUAAUUCAAACAAUCCGUCUG [Fam1A.1 aminoacylation ribozyme variant] | 0.609 | 0.682 | 0.578 | 0.937 | 0.764 | 0.635
CCAAACUUCAAGCAAUCGGAC [Fam1B.1 aminoacylation ribozyme variant] | 0.602 | 0.912 | 0.789 | 1.14 | 1.1 | 0.662
AUUCACCUGGGUCAACGGGUG [Fam2.2 aminoacylation ribozyme variant] | 3.21 | 2.41 | 4.25 | 22.8 | 2.56 | 3.9
